# Test results taken from patent US7125658B2, “Small protein that interacts with a ribonucleotide reductase subunit and uses thereof” (The Trustees of Columbia University in the City of New York, priority 1998, dated 2006).
# T1: Recombinant mouse ribonucleotide reductase R1 protein (mouse, UniProt P07742 1-792)
# T1 construct: also called mouse R1 protein
# T1 sequence (looked up): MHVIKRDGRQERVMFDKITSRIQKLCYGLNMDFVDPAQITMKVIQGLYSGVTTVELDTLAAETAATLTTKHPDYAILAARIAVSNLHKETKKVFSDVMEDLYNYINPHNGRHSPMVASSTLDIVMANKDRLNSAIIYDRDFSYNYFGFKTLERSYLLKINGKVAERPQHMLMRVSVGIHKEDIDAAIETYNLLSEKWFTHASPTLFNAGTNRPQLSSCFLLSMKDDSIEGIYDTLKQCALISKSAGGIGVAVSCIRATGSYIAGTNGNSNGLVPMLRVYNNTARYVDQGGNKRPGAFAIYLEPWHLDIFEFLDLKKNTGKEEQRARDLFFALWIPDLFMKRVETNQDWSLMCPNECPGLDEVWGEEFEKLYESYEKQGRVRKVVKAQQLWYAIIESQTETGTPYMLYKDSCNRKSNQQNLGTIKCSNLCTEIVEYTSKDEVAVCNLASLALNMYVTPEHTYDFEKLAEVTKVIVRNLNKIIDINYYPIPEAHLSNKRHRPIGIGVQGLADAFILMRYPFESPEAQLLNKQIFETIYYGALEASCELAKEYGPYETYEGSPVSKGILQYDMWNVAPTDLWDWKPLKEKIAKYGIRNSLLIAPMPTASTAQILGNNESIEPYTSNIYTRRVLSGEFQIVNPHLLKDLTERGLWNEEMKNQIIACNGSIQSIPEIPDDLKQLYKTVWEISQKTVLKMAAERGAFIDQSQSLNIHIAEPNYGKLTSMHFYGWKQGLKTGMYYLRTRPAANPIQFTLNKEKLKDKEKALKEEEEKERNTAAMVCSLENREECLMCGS
# T2: mouse R1 protein (Mus musculus, UniProt P07742)
# T2 construct: made in house; host or cells: E. coli BL21 (DE3)pLysS, pET3a
# T2 sequence (P07742 1-792): T1 sequence (looked up)
# T3: mouse RNR (Mus musculus, UniProt P07742)
# T3 construct: made in house; host or cells: E. coli BL21 (DE3)pLysS, pET3a
# T3 sequence (P07742 1-792): T1 sequence (looked up)
# B1: Recombinant yeast Sml1 protein (other)
# chain: MQNSQDYFYAQNRCQQQQAPSTLRTVTMAEFRRVPLPPMAEVPMLSTQNSMGSSASASASSLEMWEKDLEERLNSIDHDMNNNKFGSGELKSMFNQGKVEEMDF
# notes: Immobilized on the BIAcore chip in the biosensor experiments; also called YML058W product
# B2: Sml1p: 104 amino acid yeast protein encoded by YML058w (SML1) that binds Rnr1 and inhibits ribonucleotide reductase; recombinant, expressed in E. coli (protein)
# chain: B1 chain
# What was measured:
# [1] = biological target: T1, Recombinant mouse ribonucleotide …; experiment: BIAcore biosensor, mouse R1 protein alone at 0.1 mg/ml over immobilized Sml1p, prolonged injection, bulk effect not subtracted
# mouse R1 protein = biological target: T2, mouse R1 protein; experiment: BIAcore biosensor analysis, immobilized Sml1p and mouse R1 protein; assay type: binding; conditions: not quantified
# Protocol: FIG. 14 Sensorgram showing the interaction between immobilized Sml1p and the mouse R1 protein. […] Curve 3 showes the response with mouse R1 protein alone at 0.1 mg/ml passed over immobilized Sml1p. Note that the injection time for this curve is prolonged from 6 min to 14 min.
# BIAcore biosensor analysis. The interaction between Sml1p and either yeast Rnr1p or mouse R1 protein was studied by biosensor analysis using the BIAcore method (Biacore AB). The Sml1 protein was prepared in 10 mM sodium acetate, pH 5.2, at a concentration of 0.44 mg/ml; it was then immobilized on the dextran layer of the sensor chip as described previously for the mouse R2 protein (17). The ligand proteins were equilibrated with running buffer (10 mM Hepes-KOH, pH 7.4, 200 mM potassium acetate, 1 mM EDTA, 5 mM magnesium acetate and 0.05% Surfactant P20 (BIAcore). The interactions were studied at a constant temperature of 22° C. and a constant flow of 5 μl/min. Kinetics for the interaction of Sml1p with yeast Rnr1p was determined by allowing the immobilized Sml1p to interact with increasing concentrations of Rnr1p (18). The resonance unit (RU) is proportional to the mass, and 1 RU corresponds to a surface concentration of 1 pg of protein/mm^2 of the 100 nm thick dextran layer (19).
# Kinetic studies of the interaction between the mouse RNR R1 protein and the Sml1 protein using a biosensor technique. […]
# mouse RNR = biological target: T3, mouse RNR; experiment: in vitro mouse ribonucleotide reductase CDP assay; assay type: biochemical; conditions: 300 fold molar excess of Sml1p (36 μg), 1 μg R1, increasing R2; dependent on R1 to R2 ratio
# Protocol: FIG. 13 Inhibition of mouse RNR by the Sml1p. A series of tubes containing mouse RNR (1 μg of R1 protein and the indicated amounts of R2 protein) were incubated at 37° C. for 30 minutes as described in FIG. 9 in the absence (ã) or in the presence of 36 μg of Sml1p (o).
# Inhibition of mouse ribonucleotide reductase by the Sml1protein. The effects of Sml1 protein on pure recombinant mouse ribonucleotide reductase were tested in a CDP assay in the presence of ATP as a positive effector (FIG. 13). In the figure, RNR activity in the presence of a fixed amount of R1 protein, and in the presence or absence of a 300 fold molar excess of Sml1p, are plotted against increasing concentrations of the R2 protein.
Molecule,binding result [1],binding to mouse R1 protein (mouse R1 protein),inhibition of mouse RNR compared with yeast RNR (mouse RNR)
B1,binds,–,–
B2,–,high affinity,less pronounced
